# Source: US20220033450A1, “VIRALLY EXPRESSED INHIBITORS OF PDZ DOMAINS, SUCH AS PICK1 AND USES THEREOF” (University of Copenhagen, priority 2018, published 2022)
# Target: Protein Interacting with C Kinase-1 (PICK1), Q9EP80
# Test: FP competition, PICK1 0.15 µM, tracer PEG4 linked dimeric C5 20 nM
# Sequence of Protein Interacting with C Kinase-1 (PICK1), Q9EP80 (Q9EP80 whole entry): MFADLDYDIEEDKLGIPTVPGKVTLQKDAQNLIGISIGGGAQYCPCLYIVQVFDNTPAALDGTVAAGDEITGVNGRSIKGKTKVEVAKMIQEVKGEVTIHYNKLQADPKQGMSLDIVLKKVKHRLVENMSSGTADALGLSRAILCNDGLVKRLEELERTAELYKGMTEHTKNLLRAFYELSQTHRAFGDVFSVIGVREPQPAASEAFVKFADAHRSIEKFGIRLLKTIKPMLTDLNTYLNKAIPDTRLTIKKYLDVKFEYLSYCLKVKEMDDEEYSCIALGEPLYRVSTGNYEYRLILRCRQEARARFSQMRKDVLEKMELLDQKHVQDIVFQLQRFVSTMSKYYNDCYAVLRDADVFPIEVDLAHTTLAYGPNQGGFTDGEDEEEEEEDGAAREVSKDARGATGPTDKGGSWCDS
binder,measurement,value
"GEELLEDIRKFNEMRKNMDQLKEKINSVLSIRQGGGGSHWLKV (designed binder, modifications not checked) [SSO10a-GS4-HWLKV]",fold increase in affinity over DATC5,16 fold
